Literature values in article PMC5141497.
Where two headings read alike, the source gives them in different places.

Experiments:
[1] = molecular target: Did2 MIM1 (Saccharomyces cerevisiae) (UniProt P69771)
[2] = molecular target: Vps2 MIM1 (Saccharomyces cerevisiae) (UniProt P36108)
[3] = molecular target: Did2 MIM1 (Saccharomyces cerevisiae) (UniProt P69771); remark: listed apart in the source

Chain of Did2 MIM1 (Saccharomyces cerevisiae) (P69771 176-204): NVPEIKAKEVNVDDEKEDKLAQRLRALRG
Chain of Vps4 MIT (P52917 1-83): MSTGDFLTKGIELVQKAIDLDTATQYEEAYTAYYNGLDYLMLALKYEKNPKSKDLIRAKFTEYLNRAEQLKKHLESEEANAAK
Chain of Vps2 MIM1 (Saccharomyces cerevisiae) (P36108 183-232): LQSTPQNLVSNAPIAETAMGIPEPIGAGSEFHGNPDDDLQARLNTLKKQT
Chain of Ist1 NTD (P53843 1-193): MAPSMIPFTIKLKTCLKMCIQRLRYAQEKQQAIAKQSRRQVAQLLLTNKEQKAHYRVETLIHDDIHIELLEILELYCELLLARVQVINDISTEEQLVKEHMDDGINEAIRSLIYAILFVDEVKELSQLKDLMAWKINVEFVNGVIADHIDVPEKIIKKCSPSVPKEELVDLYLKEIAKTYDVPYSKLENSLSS

Ist1 NTD (from UniProt P53843)
Kd [1]: 1 µM

Vps4 MIT (from UniProt P52917)
Kd [2]: 28 µM | Kd [3]: 39 µM
